This test has as its target human CSF tau (human) (UniProt P10636). Put plainly: IP of tau from human CSF on antibody beads; recovery assessed by N-terminus tau ELISA (HJ8.5 capture, HJ8.7-biotin detection); value is the average over Tau12, HJ8.5 and HJ8.7.
UniProt P10636, sequence (P10636 2-758 limits assumed): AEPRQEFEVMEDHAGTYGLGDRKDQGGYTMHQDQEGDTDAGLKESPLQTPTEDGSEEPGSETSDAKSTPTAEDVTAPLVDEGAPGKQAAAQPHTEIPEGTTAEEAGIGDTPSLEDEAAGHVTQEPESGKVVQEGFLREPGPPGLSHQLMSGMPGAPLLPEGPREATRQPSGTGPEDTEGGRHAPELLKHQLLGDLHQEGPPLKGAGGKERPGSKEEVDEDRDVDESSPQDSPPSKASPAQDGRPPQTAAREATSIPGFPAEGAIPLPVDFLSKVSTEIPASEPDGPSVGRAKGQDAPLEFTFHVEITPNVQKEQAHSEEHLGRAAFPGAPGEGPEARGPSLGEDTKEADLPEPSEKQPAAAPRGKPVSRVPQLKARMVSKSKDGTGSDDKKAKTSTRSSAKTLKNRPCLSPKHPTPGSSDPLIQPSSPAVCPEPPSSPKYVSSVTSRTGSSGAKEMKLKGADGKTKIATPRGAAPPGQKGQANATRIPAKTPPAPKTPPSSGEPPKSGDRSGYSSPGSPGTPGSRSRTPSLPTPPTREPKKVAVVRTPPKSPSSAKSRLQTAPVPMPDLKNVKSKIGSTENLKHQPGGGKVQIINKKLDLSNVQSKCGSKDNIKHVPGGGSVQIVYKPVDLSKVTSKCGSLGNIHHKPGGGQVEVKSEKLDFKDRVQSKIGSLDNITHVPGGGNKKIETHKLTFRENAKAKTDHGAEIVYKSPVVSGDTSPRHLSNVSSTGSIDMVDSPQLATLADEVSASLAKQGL

Tau12 (antibody) came in with an immunoprecipitation efficiency of 99.3%. For HJ8.7 (antibody) the value was 99.3%.

The values are drawn from patent US20210096139A1.
